B1: GST-tagged USP8 MIT domain (1-142) [human] / DBP 116-131 peptide, cellulose-bound (SPOT array) [human] (parent complex)
chain 1: MPAVASVPKELYLSSSLKDLNKKTEVKPEKISTKSYVHSALKIFKTAEECRLDRDEERAYVLYMKYVTVYNLIKKRPDFKQQQDYFHSILGPGNIKKAVEEAERLSESLKLRYEEAEVRKKLEEKDRQEEAQRLQQKRQETG
chain 2: YVDLDAFLLEHGLPPS
B2: GST-tagged USP8 MIT domain (1-142) [human] / Cadherin-1 863-877 peptide, cellulose-bound (SPOT array) [not stated] (parent complex)
chain 1: B1 chain 1
chain 2: NEWGNRFKKLADMYG
B3: GST-tagged USP8 MIT domain (1-142) [human] / DNAJB6 118-130 peptide, cellulose-bound (SPOT array) [not stated] (parent complex)
chain 1: B1 chain 1
chain 2: PFEDFFGNRRGPR
B4: GST-tagged USP8 MIT domain (1-142) [human] / Girdin 1192-1207 peptide, cellulose-bound (SPOT array) [human] (parent complex)
chain 1: B1 chain 1
chain 2: EVEHRDLEDRYNQLLK

One experiment covers variants of B1. Description: SPOT array alanine scanning; read off a plot.
On to chain 2 YVDLDAFLAEHGLPPS [chain 2 L9A], for which the screen value was approximately 98%.

For chain 2 YVDLDAALLEHGLPPS [chain 2 F7A], the screen value is approximately -72%.

As for chain 2 YVDLAAFLLEHGLPPS [chain 2 D5A], the screen value is approximately -100%.

For the variant chain 2 YVDLDAFLLAHGLPPS [chain 2 E10A], the screen value was approximately -94%.

In the case of chain 2 YVDLDAFLLEAGLPPS [chain 2 H11A], the screen value was approximately -79%.

Regarding chain 2 YVALDAFLLEHGLPPS [chain 2 D3A], the screen value was approximately -84%.

Consider chain 2 YVDLDAFLLEHGLPAS [chain 2 P15A], for which the screen value was approximately 19%.

With chain 2 AVDLDAFLLEHGLPPS [chain 2 Y1A], the screen value was approximately 110%.

For chain 2 YVDADAFLLEHGLPPS [chain 2 L4A], the screen value is approximately -52%.

For the variant chain 2 YVDLDAFALEHGLPPS [chain 2 L8A], the screen value was approximately -20%.

For chain 2 YVDLDAFLLEHGLPPA [chain 2 S16A], the screen value is approximately 12%.

chain 2 YADLDAFLLEHGLPPS [chain 2 V2A]: the screen value is approximately 98%.

Regarding chain 2 YVDLDGFLLEHGLPPS [chain 2 A6G], the screen value is approximately -38%.

Variants of B2 are the subject of another experiment. Briefly: SPOT array alanine scanning; read off a plot.
Regarding chain 2 NEAGNRFKKLADMYG [chain 2 W3A], the screen value was approximately -100%.

Turning to chain 2 NEWANRFKKLADMYG [chain 2 G4A], the screen value was approximately -39%.

As for chain 2 NEWGNRFKALADMYG [chain 2 K9A], the screen value was approximately -70%.

Turning to chain 2 NEWGARFKKLADMYG [chain 2 N5A], the screen value is approximately -34%.

Take chain 2 NEWGNRFKKLADAYG [chain 2 M13A]: the screen value is approximately -22%.

On to chain 2 NEWGNAFKKLADMYG [chain 2 R6A], for which the screen value is approximately -98%.

As to chain 2 NEWGNRFAKLADMYG [chain 2 K8A], the screen value is approximately -65%.

For the variant chain 2 NAWGNRFKKLADMYG [chain 2 E2A], the screen value is approximately -57%.

As to chain 2 NEWGNRFKKLADMYA [chain 2 G15A], the screen value is approximately -57%.

For the variant chain 2 NEWGNRFKKLADMAG [chain 2 Y14A], the screen value was approximately -44%.

chain 2 NEWGNRFKKAADMYG [chain 2 L10A]: the screen value is approximately -62%.

As for chain 2 NEWGNRFKKLGDMYG [chain 2 A11G], the screen value was approximately -32%.

Regarding chain 2 AEWGNRFKKLADMYG [chain 2 N1A], the screen value is approximately -9%.

For the variant chain 2 NEWGNRAKKLADMYG [chain 2 F7A], the screen value is approximately -100%.

Regarding chain 2 NEWGNRFKKLAAMYG [chain 2 D12A], the screen value is approximately -56%.

The variants in a further experiment derive from B3. Briefly: SPOT array alanine scanning; read off a plot.
As for chain 2 PFEDFFGNRRGPA [chain 2 R13A], the screen value is approximately 20%.

Take chain 2 PFEDFFANRRGPR [chain 2 G7A]: the screen value is approximately -40%.

For the variant chain 2 PFEDFAGNRRGPR [chain 2 F6A], the screen value is approximately -67%.

With chain 2 PFEDFFGNRRGAR [chain 2 P12A], the screen value was approximately -17%.

In the case of chain 2 AFEDFFGNRRGPR [chain 2 P1A], the screen value was approximately 30%.

With chain 2 PAEDFFGNRRGPR [chain 2 F2A], the screen value was approximately 10%.

In the case of chain 2 PFEAFFGNRRGPR [chain 2 D4A], the screen value was approximately -88%.

On to chain 2 PFEDAFGNRRGPR [chain 2 F5A], for which the screen value is approximately -63%.

In the case of chain 2 PFEDFFGARRGPR [chain 2 N8A], the screen value is approximately -48%.

On to chain 2 PFADFFGNRRGPR [chain 2 E3A], for which the screen value was approximately -46%.

As for chain 2 PFEDFFGNRAGPR [chain 2 R10A], the screen value was approximately -29%.

For the variant chain 2 PFEDFFGNARGPR [chain 2 R9A], the screen value was approximately -19%.

chain 2 PFEDFFGNRRAPR [chain 2 G11A]: the screen value was approximately -39%.

Variants of B4 are the subject of a further experiment. Description: SPOT array alanine scanning; read off a plot.
Turning to chain 2 EVEHRDLEDAYNQLLK [chain 2 R10A], the screen value was approximately -92%.

Take chain 2 EVEHRDLEDRYNQLLA [chain 2 K16A]: the screen value was approximately 120%.

As for chain 2 EVEARDLEDRYNQLLK [chain 2 H4A], the screen value is approximately 65%.

As to chain 2 EVAHRDLEDRYNQLLK [chain 2 E3A], the screen value was approximately 80%.

As to chain 2 EVEHRDLEDRYNQALK [chain 2 L14A], the screen value is approximately -94%.

Turning to chain 2 EVEHRDAEDRYNQLLK [chain 2 L7A], the screen value is approximately -100%.

As to chain 2 EVEHRALEDRYNQLLK [chain 2 D6A], the screen value is approximately 40%.

Turning to chain 2 EVEHADLEDRYNQLLK [chain 2 R5A], the screen value is approximately 48%.

With chain 2 EVEHRDLEDRYNALLK [chain 2 Q13A], the screen value is approximately 28%.

As for chain 2 EAEHRDLEDRYNQLLK [chain 2 V2A], the screen value was approximately 69%.

Turning to chain 2 EVEHRDLADRYNQLLK [chain 2 E8A], the screen value is approximately -72%.

Regarding chain 2 EVEHRDLEARYNQLLK [chain 2 D9A], the screen value is approximately 58%.

In the case of chain 2 EVEHRDLEDRYAQLLK [chain 2 N12A], the screen value is approximately -37%.

As for chain 2 EVEHRDLEDRYNQLAK [chain 2 L15A], the screen value was approximately -81%.

As to chain 2 EVEHRDLEDRANQLLK [chain 2 Y11A], the screen value was approximately -100%.

With chain 2 AVEHRDLEDRYNQLLK [chain 2 E1A], the screen value was approximately 50%.

Source of the values: paper PMC12057046 (2025).
